Test results as given in US20250101089A1.

Molecular target: 6×His human TRIM21 PRYSPRY labelled with Alexa Fluor 488 (human) (UniProt P19474)
Assay: fluorescence anisotropy; 5 nM Alexa Fluor 488-labelled human TRIM21 PRYSPRY, antibody titrated

UniProt P19474, sequence (P19474 287-465 limits assumed): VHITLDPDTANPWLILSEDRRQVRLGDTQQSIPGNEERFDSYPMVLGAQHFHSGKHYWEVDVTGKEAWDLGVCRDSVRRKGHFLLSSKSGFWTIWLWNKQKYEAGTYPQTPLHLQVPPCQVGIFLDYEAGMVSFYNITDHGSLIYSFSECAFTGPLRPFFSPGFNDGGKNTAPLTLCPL

Kd [nM]	fold increase in affinity against 9C12 WT [fold]	Substance
0.1	–	AP422 NALALA T256P (mouse-human chimeric, human IgG1 Fc region) (antibody)
29	–	AP422 NALALA (N297A, L234A, L235A; mouse-human chimeric, human IgG1 Fc region) (antibody)
0.9	–	AP422 N297A T256P (mouse-human chimeric, human IgG1 Fc region) (antibody)
1	10	9C12 T256P (mouse-human chimeric, human IgG1 Fc) (antibody)
0.7	–	AP422 T256P (mouse-human chimeric, human IgG1 Fc region) (antibody)
0.467	–	9C12 N297A T256P (mouse-human chimeric, human IgG1 Fc) (antibody)
14	–	AP422 N297A (mouse-human chimeric, human IgG1 Fc region) (antibody)
